The results in this text go back to paper PMC5225439, “Nucleoplasmin-like domain of FKBP39 from Drosophila melanogaster forms a tetramer with partly disordered tentacle-like C-terminal segments” (Scientific Reports, 2017).

Data set [1] concerns the molecule itself. The experiment in a line: AUC; sedimentation velocity, 20 °C, buffer C (50 mM Na2HPO4, 150 mM NaCl, pH 7.0), 0.2 and 0.5 mg/ml protein, 40,000 rpm, absorbance at 280 nm, continuous c(s) distribution in SEDFIT.
Data set [2] concerns the molecule itself. The experiment in a line: SEC-MALS; 100 μl of 1 mg/ml FKBP39 on Superdex 200 Increase 10/300 in buffer C (50 mM Na2HPO4, 150 mM NaCl, pH 7.0), 0.5 ml/min. On the technique in general: In gel filtration, larger molecules generally elute earlier.

A word on the stoichiometry N: it is the number of molecules, sites or subunits per partner or assembly.

B1: 39-kDa FK506-binding protein (FKBP39) from Drosophila melanogaster, full-length, with C-terminal 8x His-tag (natural protein, UniProt P54397 1-357, looked up)
chain: MSMFWGLNMKPERKYSQTIIKSFHISGVALDKGQEAKLYLAAEKQEYIVATVTKAIPQVALDLNFSKGDRIMFYTAGDASVSLLGYLHDIDSEDDEDDDQMTIENLLNSKAIKNSKKSEDDEDENESGEEDEEDTDDDSQIIEEYESFLENGEEEDDDDVDEDNEESGEEDEQDSDDSEAEEEQPKAKVAKLSPGASAKKSGKEQNGVAKKEEAKQQQKKKEKPEAKKEQPKAKEPAKQQPASKDPRTITGGVKIVDQVVGKGEEAKQGKRVSVYYIGRLQSNNKTFDSLLKGKPFKFALGGGEVIKGWDVGVAGMKVGGKRVITCPPHMAYGARGAPPKIGPNSTLVFEVELKAVH
notes: N-terminal NPL 1-86, central charged region 87-256, C-terminal FKBD 257-357; Cloned BamHI/HindIII into the modified vector pQE80L-XH; The forward primer puts TCG (Ser) before the FKBP39 ATG, so a few vector-derived residues precede the natural start; also called full-length FKBP39; recombinant FKBP39; source: E. coli BL21(DE3)pLysS, purified (Co2+-TALON resin, Superdex 200 SEC)
As to B1, the “stoichiometry N” value in data set [1] is 4; in data set [2], 2.
